Reference: patent publication US7033590 (BAXTER AKTIENGESELLSCHAFT, dated 2006)
Each block holds one molecule with its values, some of them ahead of it. Non-standard residues stand in square brackets, D forms with d. No end group written: not given here.

Assays:
[1] = target: T1, human activated factor IX (human FIXa) (human, UniProt P00740 47-191; P00740 227-461); experiment: cell-based or functional assay
[2] = target: T2, human coagulation factor (F) IX (human, UniProt P00740 47-461); experiment: Western blot and ELISA
T2 construct: also called Factor IX; factor IX

[3] = target: T1, human activated factor IX (human FIXa); experiment: cell-based or functional assay; remark: listed apart in the source
[4] = target: T1, human activated factor IX (human FIXa); experiment: cell-based or functional assay; remark: listed apart in the source

T2 sequence (P00740 47-461 limits assumed): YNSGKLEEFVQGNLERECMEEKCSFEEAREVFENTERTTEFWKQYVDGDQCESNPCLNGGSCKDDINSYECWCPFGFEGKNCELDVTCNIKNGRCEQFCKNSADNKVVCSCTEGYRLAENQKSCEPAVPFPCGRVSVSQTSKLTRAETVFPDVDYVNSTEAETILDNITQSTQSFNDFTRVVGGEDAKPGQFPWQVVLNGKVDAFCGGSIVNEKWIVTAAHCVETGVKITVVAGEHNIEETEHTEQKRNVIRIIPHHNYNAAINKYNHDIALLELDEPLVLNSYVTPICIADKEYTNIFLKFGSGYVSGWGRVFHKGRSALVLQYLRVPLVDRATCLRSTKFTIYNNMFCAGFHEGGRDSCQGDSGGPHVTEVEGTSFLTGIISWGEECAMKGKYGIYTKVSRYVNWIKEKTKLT

- clotting time, aPTT one-stage (Pathromtin SL), FVIII deficient plasma, 2.2 nM human FIXa, FVIII 6.25 mU/ml, average (IZ buffer 108) [1]: 59 s
- clotting time, aPTT one-stage (Pathromtin SL), FVIII deficient plasma, 2.2 nM human FIXa, FVIII 6.25 mU/ml, duplicate 1 (IZ buffer 107.9) [1]: 58.6 s
- clotting time, aPTT one-stage (Pathromtin SL), FVIII deficient plasma, 2.2 nM human FIXa, FVIII 6.25 mU/ml, duplicate 2 (IZ buffer 108.7) [1]: 58.9 s
- clotting time, aPTT one-stage (Pathromtin SL), FVIII deficient plasma, 2.2 nM human FIXa, FVIII 12.5 mU/ml, average (IZ buffer 108) [1]: 53 s
- clotting time, aPTT one-stage (Pathromtin SL), FVIII deficient plasma, 2.2 nM human FIXa, FVIII 12.5 mU/ml, duplicate 1 (IZ buffer 107.9) [1]: 52.9 s
- clotting time, aPTT one-stage (Pathromtin SL), FVIII deficient plasma, 2.2 nM human FIXa, FVIII 12.5 mU/ml, duplicate 2 (IZ buffer 108.7) [1]: 53.6 s
Molecule: Factor VIII (from UniProt P00451 20-2351)

- clotting time, aPTT one-stage assay, FVIII deficient plasma, 50 ng FIXa, 0.23 µg antibody [1]: 104 s
- clotting time, aPTT one-stage assay, FVIII deficient plasma, 50 ng FIXa, 0.34 µg antibody [1]: 104 s
- clotting time, aPTT one-stage assay, FVIII deficient plasma, 50 ng FIXa, 0.45 µg antibody [1]: 102 s
- clotting time, aPTT one-stage assay, FVIII deficient plasma, 50 ng FIXa, 0.9 µg antibody [1]: 102 s
- clotting time, aPTT one-stage assay, FVIII deficient plasma, 50 ng FIXa, 1.35 µg antibody [1]: 103 s
- clotting time, aPTT one-stage assay, FVIII deficient plasma, 50 ng FIXa, 1.8 µg antibody [1]: 102 s
- clotting time, aPTT one-stage assay, FVIII deficient plasma, 50 ng FIXa, 2.25 µg antibody [1]: 103 s
- clotting time, aPTT one-stage assay, FVIII deficient plasma, 50 ng FIXa, 4.5 µg antibody [1]: 103 s
- clotting time, aPTT one-stage assay, FVIII deficient plasma, 50 ng FIXa, 9 µg antibody [1]: 102 s
Molecule: unspecific mouse IgG (antibody)

- binding result [2]: no binding
B1: irrelevant monoclonal antibody #8860 (antibody, V domains shown)
VH: EVQLQQSGPELVKPGASVKISCKASGYAFSSSWMNWVKQRPGQGLEWIGRIYPGNGDTNYNGKFKGKATLTADKSSSTAYMQLSSLTSVDSAVYFCADGNVYYYAMDYWGQGTSVTVSS
VL: QIVLTQSPASLAVSLGQRATISCRASKSVSTSGYSYMHWYQQKPGQPPKLLIYLASNLESGVPARFSGSGSGTDFTLNIHPVEEEDAATYYCQHSRELPRTFGGGTKLEIKR
notes: Tested as the monoclonal antibody

- clotting time, aPTT one-stage assay (Table 4), 2.2 nM FIXa, peptide 1.25 µM, average (IZ buffer 96) [3]: 103 s
- clotting time, aPTT one-stage assay (Table 4), 2.2 nM FIXa, peptide 1.25 µM, duplicate 1 (IZ buffer 96) [3]: 101 s
- clotting time, aPTT one-stage assay (Table 4), 2.2 nM FIXa, peptide 1.25 µM, duplicate 2 (IZ buffer 96) [3]: 105 s
- clotting time, aPTT one-stage assay (Table 4), 2.2 nM FIXa, peptide 2.5 µM, average (IZ buffer 96) [3]: 105 s
- clotting time, aPTT one-stage assay (Table 4), 2.2 nM FIXa, peptide 2.5 µM, duplicate 1 (IZ buffer 96) [3]: 105 s
- clotting time, aPTT one-stage assay (Table 4), 2.2 nM FIXa, peptide 2.5 µM, duplicate 2 (IZ buffer 96) [3]: 104 s
- clotting time, aPTT one-stage assay (Table 4), 2.2 nM FIXa, peptide 5 µM, average (IZ buffer 96) [3]: 108 s
- clotting time, aPTT one-stage assay (Table 4), 2.2 nM FIXa, peptide 5 µM, duplicate 1 (IZ buffer 96) [3]: 108 s
- clotting time, aPTT one-stage assay (Table 4), 2.2 nM FIXa, peptide 5 µM, duplicate 2 (IZ buffer 96) [3]: 108 s
- clotting time, aPTT one-stage assay (Table 4), 2.2 nM FIXa, peptide 7.5 µM, average (IZ buffer 96) [3]: 107 s
- clotting time, aPTT one-stage assay (Table 4), 2.2 nM FIXa, peptide 7.5 µM, duplicate 1 (IZ buffer 96) [3]: 108 s
- clotting time, aPTT one-stage assay (Table 4), 2.2 nM FIXa, peptide 7.5 µM, duplicate 2 (IZ buffer 96) [3]: 107 s
- clotting time, aPTT one-stage assay (Table 4), 2.2 nM FIXa, peptide 10 µM, average (IZ buffer 96) [3]: 108 s
- clotting time, aPTT one-stage assay (Table 4), 2.2 nM FIXa, peptide 10 µM, duplicate 1 (IZ buffer 96) [3]: 107 s
- clotting time, aPTT one-stage assay (Table 4), 2.2 nM FIXa, peptide 10 µM, duplicate 2 (IZ buffer 96) [3]: 108 s
- clotting time, aPTT one-stage assay (Table 4), 2.2 nM FIXa, peptide 12.5 µM, average (IZ buffer 96) [3]: 108 s
- clotting time, aPTT one-stage assay (Table 4), 2.2 nM FIXa, peptide 12.5 µM, duplicate 1 (IZ buffer 96) [3]: 108 s
- clotting time, aPTT one-stage assay (Table 4), 2.2 nM FIXa, peptide 12.5 µM, duplicate 2 (IZ buffer 96) [3]: 108 s
- clotting time, aPTT one-stage assay (Table 4), 2.2 nM FIXa, peptide 15 µM, average (IZ buffer 96) [3]: 113 s
- clotting time, aPTT one-stage assay (Table 4), 2.2 nM FIXa, peptide 15 µM, duplicate 1 (IZ buffer 96) [3]: 113 s
- clotting time, aPTT one-stage assay (Table 4), 2.2 nM FIXa, peptide 15 µM, duplicate 2 (IZ buffer 96) [3]: 112 s
Molecule: [dR][dR][dR]GEYGVYWNGDFY[dR][dR][dR] [peptide A1/3-Rd-srmb]

- clotting time, aPTT one-stage assay (Table 4), 2.2 nM FIXa, peptide 1.25 µM, average (IZ buffer 96) [3]: 95 s
- clotting time, aPTT one-stage assay (Table 4), 2.2 nM FIXa, peptide 1.25 µM, duplicate 1 (IZ buffer 96) [3]: 94.4 s
- clotting time, aPTT one-stage assay (Table 4), 2.2 nM FIXa, peptide 1.25 µM, duplicate 2 (IZ buffer 96) [3]: 95 s
- clotting time, aPTT one-stage assay (Table 4), 2.2 nM FIXa, peptide 2.5 µM, average (IZ buffer 96) [3]: 93 s
- clotting time, aPTT one-stage assay (Table 4), 2.2 nM FIXa, peptide 2.5 µM, duplicate 1 (IZ buffer 96) [3]: 93.6 s
- clotting time, aPTT one-stage assay (Table 4), 2.2 nM FIXa, peptide 2.5 µM, duplicate 2 (IZ buffer 96) [3]: 93.3 s
- clotting time, aPTT one-stage assay (Table 4), 2.2 nM FIXa, peptide 5 µM, average (IZ buffer 96) [3]: 89 s
- clotting time, aPTT one-stage assay (Table 4), 2.2 nM FIXa, peptide 5 µM, duplicate 1 (IZ buffer 96) [3]: 89.7 s
- clotting time, aPTT one-stage assay (Table 4), 2.2 nM FIXa, peptide 5 µM, duplicate 2 (IZ buffer 96) [3]: 88.3 s
- clotting time, aPTT one-stage assay (Table 4), 2.2 nM FIXa, peptide 7.5 µM, average (IZ buffer 96) [3]: 81 s
- clotting time, aPTT one-stage assay (Table 4), 2.2 nM FIXa, peptide 7.5 µM, duplicate 1 (IZ buffer 96) [3]: 80.7 s
- clotting time, aPTT one-stage assay (Table 4), 2.2 nM FIXa, peptide 7.5 µM, duplicate 2 (IZ buffer 96) [3]: 80.5 s
- clotting time, aPTT one-stage assay (Table 4), 2.2 nM FIXa, peptide 10 µM, average (IZ buffer 96) [3]: 73 s
- clotting time, aPTT one-stage assay (Table 4), 2.2 nM FIXa, peptide 10 µM, duplicate 1 (IZ buffer 96) [3]: 72 s
- clotting time, aPTT one-stage assay (Table 4), 2.2 nM FIXa, peptide 10 µM, duplicate 2 (IZ buffer 96) [3]: 73.2 s
- clotting time, aPTT one-stage assay (Table 4), 2.2 nM FIXa, peptide 12.5 µM, average (IZ buffer 96) [3]: 67 s
- clotting time, aPTT one-stage assay (Table 4), 2.2 nM FIXa, peptide 12.5 µM, duplicate 1 (IZ buffer 96) [3]: 65 s
- clotting time, aPTT one-stage assay (Table 4), 2.2 nM FIXa, peptide 12.5 µM, duplicate 2 (IZ buffer 96) [3]: 68 s
- clotting time, aPTT one-stage assay (Table 4), 2.2 nM FIXa, peptide 15 µM, average (IZ buffer 96) [3]: 56 s
- clotting time, aPTT one-stage assay (Table 4), 2.2 nM FIXa, peptide 15 µM, duplicate 1 (IZ buffer 96) [3]: 56.1 s
- clotting time, aPTT one-stage assay (Table 4), 2.2 nM FIXa, peptide 15 µM, duplicate 2 (IZ buffer 96) [3]: 55.5 s
Molecule: RRREGGGYYVNWYFDRRR [peptide A1/3]

- clotting time, aPTT one-stage assay (Table 4), 2.2 nM FIXa, peptide 1.25 µM, average (IZ buffer 96) [3]: 96 s
- clotting time, aPTT one-stage assay (Table 4), 2.2 nM FIXa, peptide 1.25 µM, duplicate 1 (IZ buffer 96) [3]: 96.6 s
- clotting time, aPTT one-stage assay (Table 4), 2.2 nM FIXa, peptide 1.25 µM, duplicate 2 (IZ buffer 96) [3]: 96 s
- clotting time, aPTT one-stage assay (Table 4), 2.2 nM FIXa, peptide 2.5 µM, average (IZ buffer 96) [3]: 95 s
- clotting time, aPTT one-stage assay (Table 4), 2.2 nM FIXa, peptide 2.5 µM, duplicate 1 (IZ buffer 96) [3]: 94.4 s
- clotting time, aPTT one-stage assay (Table 4), 2.2 nM FIXa, peptide 2.5 µM, duplicate 2 (IZ buffer 96) [3]: 94.7 s
- clotting time, aPTT one-stage assay (Table 4), 2.2 nM FIXa, peptide 5 µM, average (IZ buffer 96) [3]: 86 s
- clotting time, aPTT one-stage assay (Table 4), 2.2 nM FIXa, peptide 5 µM, duplicate 1 (IZ buffer 96) [3]: 86 s
- clotting time, aPTT one-stage assay (Table 4), 2.2 nM FIXa, peptide 5 µM, duplicate 2 (IZ buffer 96) [3]: 85.1 s
- clotting time, aPTT one-stage assay (Table 4), 2.2 nM FIXa, peptide 7.5 µM, average (IZ buffer 96) [3]: 82 s
- clotting time, aPTT one-stage assay (Table 4), 2.2 nM FIXa, peptide 7.5 µM, duplicate 1 (IZ buffer 96) [3]: 80.9 s
- clotting time, aPTT one-stage assay (Table 4), 2.2 nM FIXa, peptide 7.5 µM, duplicate 2 (IZ buffer 96) [3]: 82.2 s
- clotting time, aPTT one-stage assay (Table 4), 2.2 nM FIXa, peptide 10 µM, average (IZ buffer 96) [3]: 76 s
- clotting time, aPTT one-stage assay (Table 4), 2.2 nM FIXa, peptide 10 µM, duplicate 1 (IZ buffer 96) [3]: 74.2 s
- clotting time, aPTT one-stage assay (Table 4), 2.2 nM FIXa, peptide 10 µM, duplicate 2 (IZ buffer 96) [3]: 77.2 s
- clotting time, aPTT one-stage assay (Table 4), 2.2 nM FIXa, peptide 12.5 µM, average (IZ buffer 96) [3]: 73 s
- clotting time, aPTT one-stage assay (Table 4), 2.2 nM FIXa, peptide 12.5 µM, duplicate 1 (IZ buffer 96) [3]: 72.3 s
- clotting time, aPTT one-stage assay (Table 4), 2.2 nM FIXa, peptide 12.5 µM, duplicate 2 (IZ buffer 96) [3]: 73.7 s
- clotting time, aPTT one-stage assay (Table 4), 2.2 nM FIXa, peptide 15 µM, average (IZ buffer 96) [3]: 75 s
- clotting time, aPTT one-stage assay (Table 4), 2.2 nM FIXa, peptide 15 µM, duplicate 1 (IZ buffer 96) [3]: 76.1 s
- clotting time, aPTT one-stage assay (Table 4), 2.2 nM FIXa, peptide 15 µM, duplicate 2 (IZ buffer 96) [3]: 74.4 s
Molecule: [dR][dR][dR]EGGGYYVNWYFD[dR][dR][dR] [peptide A1/3-Rd]

- amidolytic activity of FIXa (cleavage of CH3SO2-D-CHG-Gly-Arg-pNA, OD405), 20 mU FIXa (Stago), various amounts of antibody [4]: ≥ 2 fold
B2: monoclonal antibody 198/B1 (antibody, V domains shown)
VH: EVQLQESGGGLVKPGGSLKLSCAASGFTFSSYTMSWVRQTPEKRLEWVATISSGGSSTYYPDSVKGRFTISRDNAKNTLYLQMSSLRSEDTAMYYCTREGGGFTVNWYFDVWGAGTLVTVSA
VL: ENVLTQSPASLAVSLGQRATISCRASESVDSYGYNFMHWYQQIPGQPPKLLIYRASNLESGIPARFSGSGSRTDFTLTINPVEADDVATYYCQQSNEDPLTFGTGTRLEIKR
